Measured values published in patent EP4703380A1, “INTEGRIN-TARGETING ANTIBODIES AND USE THEREOF” (NIO BIOPHARMACEUTICALS. INC., priority 2023, dated 2024).
Values belong to the binder of their own block, whether it stands above or below them.

What was measured:
[1] = target: VLA-3 (ITGA3/ITGB1) on the cell membrane; experiment: cell-based or functional assay
[2] = target: recombinant human VLA-3 protein (ITGA3/ITGB1 heterodimer) (human) (UniProt P05556); experiment: ELISA, coated VLA-3 (0.125-1.5 nM), antibody 1 µg/mL
[3] = target: recombinant human VLA-3 protein (ITGA3/ITGB1 heterodimer) (human) (UniProt P05556); experiment: BLI (Octet Red), antibody on AHC sensor, 50 nM VLA-3 with 2 mM Ca2+
[4] = target: recombinant human VLA-3 protein (ITGA3/ITGB1 heterodimer) (human) (UniProt P05556); experiment: BLI (Octet Red), antibody on AHC sensor, 50 nM VLA-3 with 2 mM EDTA
[5] = target: recombinant human VLA-3 protein (ITGA3/ITGB1 heterodimer) (human) (UniProt P05556); experiment: BLI (Octet Red), antibody on AHC sensor, 50 nM VLA-3 with 2 mM Mg2+
[6] = target: recombinant human VLA-3 protein (ITGA3/ITGB1 heterodimer) (human) (UniProt P05556); experiment: BLI (Octet Red), antibody on AHC sensor, 50 nM VLA-3 with 2 mM Mn2+
[7] = target: recombinant human VLA-3 protein (ITGA3/ITGB1 heterodimer) (human) (UniProt P05556); experiment: SPR (Biacore T200), PS4-002 immobilised on CM5, VLA-3 as analyte, HBS-EP running buffer with 3 mM EDTA
[8] = target: recombinant human VLA-3 protein (ITGA3/ITGB1 heterodimer) (human) (UniProt P05556); experiment: BLI (Octet Red), antibody on AHC sensor, VLA-3 as analyte, no additive, 0 mM EDTA in the running buffer
[9] = target: recombinant human VLA-3 protein (ITGA3/ITGB1 heterodimer) (human, UniProt P05556 21-728); experiment: ELISA, coated VLA-3 (0.125-1.5 nM), antibody 1 µg/mL
Sequence of recombinant human VLA-3 protein (ITGA3/ITGB1 heterodimer) (P05556 21-728, one chain of several): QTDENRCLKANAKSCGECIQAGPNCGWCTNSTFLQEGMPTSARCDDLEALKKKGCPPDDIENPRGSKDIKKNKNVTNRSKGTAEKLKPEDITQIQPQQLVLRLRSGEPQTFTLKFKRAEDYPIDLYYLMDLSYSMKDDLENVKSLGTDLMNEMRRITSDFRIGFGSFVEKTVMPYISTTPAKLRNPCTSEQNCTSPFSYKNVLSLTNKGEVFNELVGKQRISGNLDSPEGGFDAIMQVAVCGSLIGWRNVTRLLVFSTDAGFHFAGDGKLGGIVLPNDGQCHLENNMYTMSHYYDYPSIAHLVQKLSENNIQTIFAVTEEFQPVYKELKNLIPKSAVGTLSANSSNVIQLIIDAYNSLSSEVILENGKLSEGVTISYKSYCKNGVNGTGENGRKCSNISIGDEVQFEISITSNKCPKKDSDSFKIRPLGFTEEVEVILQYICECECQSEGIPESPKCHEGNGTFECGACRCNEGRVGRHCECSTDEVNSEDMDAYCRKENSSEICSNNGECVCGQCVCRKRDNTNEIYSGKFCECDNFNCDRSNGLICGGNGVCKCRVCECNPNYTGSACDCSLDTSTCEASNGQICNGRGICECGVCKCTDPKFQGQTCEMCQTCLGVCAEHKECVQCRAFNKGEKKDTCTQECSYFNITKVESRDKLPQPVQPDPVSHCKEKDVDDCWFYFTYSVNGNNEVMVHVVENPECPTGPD

Sequence of recombinant human VLA-3 protein (ITGA3/ITGB1 heterodimer) (human) (P05556 21-728, one chain of several): as above

IC50 (nM), cell growth inhibition (AlamarBlue), A549 cells [1]: 5.22 nM | IC50 (nM), cell growth inhibition (AlamarBlue), BT20 cells [1]: 134 nM | IC50 (nM), cell growth inhibition (AlamarBlue), CoCaB1 cells [1]: 2.21 nM | IC50 (nM), cell growth inhibition (AlamarBlue), MDA-MB-231 cells [1]: 0.77 nM | IC50 (nM), cell growth inhibition (AlamarBlue), MDA-MB-453 cells (first row) [1]: 9.79 nM | IC50 (nM), cell growth inhibition (AlamarBlue), MDA-MB-453 cells (second row) [1]: 18.8 nM | IC50 (nM), cell growth inhibition (AlamarBlue), MKN45 cells [1]: 14.1 nM | IC50 (nM), cell growth inhibition (AlamarBlue), Panc-1 cells [1]: 2.7 nM | IC50 (nM), cell growth inhibition (AlamarBlue), SCaBER cells [1]: 1.88 nM | IC50 (nM), cell growth inhibition (AlamarBlue), SW780 cells [1]: 1.78 nM | IC50 (nM), cell growth inhibition (AlamarBlue), UMUC-3 cells [1]: 2.1 nM | Maximum (% inhibition), cell growth inhibition (AlamarBlue), A549 cells [1]: 77.3% | Maximum (% inhibition), cell growth inhibition (AlamarBlue), Aspc-1 cells [1]: 51.8% | Maximum (% inhibition), cell growth inhibition (AlamarBlue), BT20 cells [1]: 79.6% | Maximum (% inhibition), cell growth inhibition (AlamarBlue), CoCaB1 cells [1]: 95.5% | Maximum (% inhibition), cell growth inhibition (AlamarBlue), MDA-MB-231 cells [1]: 78% | Maximum (% inhibition), cell growth inhibition (AlamarBlue), MDA-MB-453 cells (first row) [1]: 96.2% | Maximum (% inhibition), cell growth inhibition (AlamarBlue), MDA-MB-453 cells (second row) [1]: 87.9% | Maximum (% inhibition), cell growth inhibition (AlamarBlue), MDA-MB-468 cells [1]: 89.9% | Maximum (% inhibition), cell growth inhibition (AlamarBlue), MKN45 cells [1]: 55.6% | Maximum (% inhibition), cell growth inhibition (AlamarBlue), Panc-1 cells [1]: 73.8% | Maximum (% inhibition), cell growth inhibition (AlamarBlue), SCaBER cells [1]: 89.7% | Maximum (% inhibition), cell growth inhibition (AlamarBlue), SW780 cells [1]: 90.4% | Maximum (% inhibition), cell growth inhibition (AlamarBlue), UMUC-3 cells [1]: 90.8%
B1: PS4-002-vcMMAE (PS4 maxibody-vcMMAE conjugate, WT) (Fc fusion, part only; not given: scFv linker, hinge-Fc and drug, not shown: another chain or arm of the molecule; a dimerising Fc or GST; small tags and cut ends)
VH: QVQLVQSGGGLVNPGGSLRLSCAASGFPFSDHYMSWIRQAPGKGLEWVSYISNRGYTIHYADFVKGRFTISRDNAENTLYLQMNSLRAEDTAVYYCARDRGTIDAFDLWGQGTMVTVSS
VL: QSALTQPASVSGSPGQSITIPCSGTSDDIGRYNYVSWYQQHPGKAPKLLIYDVTRRSSGVSSHFSGSKSGSTASLIISGLQADDEADYFCSSFTNNRTVVFGGGTKLTVL
modifications: vcMMAE conjugated to cysteines after partial reduction with TCEP; average DAR 4.09; sites not stated, presumabl [CUT]

EC50 [2]: 1 nM | Kd [3]: 6.46 nM | koff [3]: 0.000209 s⁻¹ | kon [3]: 32400 M⁻¹ s⁻¹ | Kd [4]: 2170 nM | koff [4]: 0.00397 s⁻¹ | kon [4]: 1830 M⁻¹ s⁻¹ | Kd [5]: 0.85 nM | koff [5]: 3.78e-05 s⁻¹ | kon [5]: 44600 M⁻¹ s⁻¹ | Kd [6]: 0.23 nM | koff [6]: 8.46e-06 s⁻¹ | kon [6]: 36500 M⁻¹ s⁻¹ | Kd [7]: 216 nM | koff [7]: 0.0045 s⁻¹ | kon [7]: 20900 M⁻¹ s⁻¹ | Kd [8]: 2.15 nM | koff [8]: 5.9e-05 s⁻¹ | kon [8]: 32500 M⁻¹ s⁻¹
B2: PS4-002 maxibody (scFv-human IgG1 Fc), wild type (Fc fusion, part only; not given: scFv linker and IgG1 hinge-Fc, not shown: another chain or arm of the molecule; a dimerising Fc or GST; small tags and cut ends)
VH: B1 VH
VL: B1 VL

EC50 [9]: ~1 nM
B3: PS4 maxibody variant 2 (Linker-C variant) (Fc fusion)
scFv: QVQLVQSGGGLVNPGGSLRLSCAASGFPFSDHYMSWIRQAPGKGLEWVSYISNRGYTIHYADFVKGRFTISRDNAENTLYLQMNSLRAEDTAVYYCARDRGTIDAFDLWGQGTMVTVSSGGGGGSGGGSCGGGGSQSALTQPASVSGSPGQSITIPCSGTSDDIGRYNYVSWYQQHPGKAPKLLIYDVTRRSSGVSSHFSGSKSGSTASLIISGLQADDEADYFCSSFTNNRTVVFGGGTKLTVLG
notes: also called Mutant 2; L-C; not shown: Fc domain of human IgG1
